Here are results for 132 substances from the supplement of paper PMC12042874.

This series in a line: amyloid nucleation score (Sup35N fusion, yeast selection) (log enrichment); library NNK3; higher = more nucleation; inactive = no reads after selection. The procedure, abridged: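 DiMSum was used to calculate nucleation scores as log enrichment of output over input reads, centred on the mode score of non-aggregating sequences. Sequences with fewer than 100 input reads were not scored. Input and output came from Illumina sequencing of plasmid inserts in psi-negative yeast expressing peptides of 20 random codons fused to Sup35N, induced 24 hours with 100 μM copper sulfate and then grown 7 days at 30°C on medium lacking adenine and uracil.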

± gives the uncertainty stated by the source.

As for STNWMVRLFYSRIEWGVNLG, the amyloid nucleation score result was “inactive”.

On to HPWEARGHPVLHERRNLHSI, for which the amyloid nucleation score entry is “inactive”. To YISCMCANIRNIFVISIH belongs 1.81 ± 0.08. To VRPLVDYMMQNM belongs “inactive”; to ESFESVYR, “inactive”; to NMILFISCEIPGRGVFGRCC, 1.13 ± 0.11. To DQGNPSNSSLDLPLGGSFGE belongs “inactive”; to IAVERMIGLLPGSYF, “inactive”; to LLVFSTGHARRFFSSYESRG, 1.28 ± 0.09. RLSGKTPCAK: the amyloid nucleation score entry is “inactive”. The result for LNFAHAKMFSFITMVVY reads “inactive”; that for SYYSRIRLLRRVRVSYYYVR, 0.801 ± 0.22; that for FIRLYDKIRWYNDGNWVWHV, “inactive”. To PLTPD belongs “inactive”; to RGESHVCLCYL, 0.761 ± 0.17; to CASPSGFSSQGVTWFVEV, “inactive”.

Regarding SMFGLRLIDG, the amyloid nucleation score result is “inactive”. To LTVLFTVCWVGTRAYGLIGG belongs “inactive”; to YLCIKNRLDKDRSW, “inactive”. To SMKLLT belongs -0.254 ± 0.7; to SLSIVETIGVCL, “inactive”; to GLGYWAKGSHLWVLLRLLNH, “inactive”. For NIIFRTW, the amyloid nucleation score result was “inactive”. The result for LCFNR reads “inactive”. The result for QRLVINDMMPLFFWHSNMGD reads “inactive”; that for YPLSPRLLRTTTMHSTQGVG, “inactive”. Take FCLLIRAVSPCLTSGRIILV: the amyloid nucleation score result is “inactive”. The result for HYINYINLQMVYFDVGQMYC reads 2.96 ± 0.062; that for GLTVCTSYLSISAYDMYANL, 1.29 ± 0.067; that for SGGLSSLILSCFHIFIIKTY, “inactive”. To TTRYHF belongs “inactive”; to VEAMQVWDSSFMSCTNLFTS, “inactive”; to CSYRCYSLGCNMQIV, “inactive”. The result for SYNKEKVSKTFVGCPTRSMV reads “inactive”. On to FHPFMCSYGSGWDGRLVHCG, for which the amyloid nucleation score entry was “inactive”. Turning to VFQRR, the amyloid nucleation score result is “inactive”.

Take RTFVNGSAEYANASHWEYPN: the amyloid nucleation score entry is “inactive”. DCRAIVLRL: the amyloid nucleation score entry was “inactive”. The result for YVDCYRFAVMQEFPCQYRGD reads “inactive”. To VSLKVFYGNKDARNRDIPTL belongs “inactive”. To ISHCMVLRNA belongs 2.49 ± 0.086; to VCVTSSSMCNFDGLVVTRVV, “inactive”. Regarding TQSFWIARYTQLVCPRLCQN, the amyloid nucleation score result was “inactive”. The result for TGCSSF reads “inactive”; that for EEVMMRAINQEAPCEPQLRV, “inactive”; that for CMRGWNSRVE, “inactive”. To EDGCRNVRLFTMVRSLMYK belongs “inactive”; to LTRDVCFN, 0.312 ± 0.54; to IRPWQLCMSKLSHIRRATPY, “inactive”. As for LDAYLWNNCMYVYHLEPYSW, the amyloid nucleation score result is “inactive”. Consider VSVNMFLYISVNYKELGCEY, for which the amyloid nucleation score came to 1.93 ± 0.056.

With IHGKGGLWSHSISIHWNN, the amyloid nucleation score entry was “inactive”.

Consider YRFVRGWFRMRIERPAAPCT, for which the amyloid nucleation score result was “inactive”. To SYCYSIAMLAMIFLLMQCVI belongs -0.011 ± 0.43; to VIRGRMMCHGIGAYVVWKSH, “inactive”. To CQYPCVMLCQC belongs 0.504 ± 0.19. To LRSFGYRRQ belongs “inactive”. Consider MFLLMNKV, for which the amyloid nucleation score result was “inactive”.

Turning to FVTYCVRQETV, the amyloid nucleation score amounted to 0.578 ± 0.15.

As for VLLVHGKEWTEMLAHTLRCG, the amyloid nucleation score result is “inactive”.

For the substance VSACLNSGGQHSQRHANMAV, the amyloid nucleation score entry was “inactive”. The result for AFAMRMTCSGLVNICHFAWL reads 0.287 ± 0.38.

LFYGSTCIGTDM: the amyloid nucleation score was -1.07 ± 1.1. The result for GYFRWSRAFQLPWNSWSEWQ reads “inactive”. To SPVHLCMDLGSS belongs “inactive”.

As to VALDNCTFVLVAMQTDQD, the amyloid nucleation score stood at 0.817 ± 0.12.

With LVSLWLDRD, the amyloid nucleation score result was “inactive”. FVRTLCCLAYVWHYDLRYC gave an amyloid nucleation score of 0.406 ± 0.31.

On to VVSSRLDAALDCWVREDCGV, for which the amyloid nucleation score entry is “inactive”. The result for FCLVGIFTCRGTLNTLLALH reads “inactive”; that for VTFLHGCIDFAGSYSAGSSD, “inactive”.

On to WFDSAPSPLDLRVHLFNVKV, for which the amyloid nucleation score entry was “inactive”. For HHIFVFQGLASLNLHTDWML, the amyloid nucleation score came to 1.62 ± 0.1. Take DEFVCLEVDNLCMVCSEKM: the amyloid nucleation score is -0.067 ± 0.73. The result for AKTSADYTYVASRTDFGCVN reads “inactive”; that for CPFPRLSICVACNEYDNQLS, “inactive”; that for RCEFIFS, “inactive”. To LKSSPNPFMNNGFIISAILG belongs “inactive”; to NMVPNCDLLMKSRLKVSNSA, “inactive”.

For the substance PTAKRM, the amyloid nucleation score entry was “inactive”.

In the case of VKTWCYRCCSGALSLS, the amyloid nucleation score result is “inactive”. With SYWPVRSELQSVLLNSCGVR, the amyloid nucleation score entry is “inactive”. The result for DYSFYTFPESAVLCTCSSYG reads -0.682 ± 1.1; that for YSMSILFRYHLNGVRYGMTG, “inactive”; that for ALRARERWLRLPALAWKVMY, “inactive”.

FSIAMFQANSGYASR: the amyloid nucleation score worked out at 1.25 ± 0.14. As for GLFLGYSLIASVIGRLVDNL, the amyloid nucleation score entry is “inactive”.

On to NSKGMI, for which the amyloid nucleation score entry was “inactive”.

Take ESRLIISKDGRRSMSKHGGP: the amyloid nucleation score entry was “inactive”. To FFSCFCLLMRY belongs “inactive”. Take SCKFITFRGGQVQLVNDEGM: the amyloid nucleation score result is “inactive”. To RNWLMANS belongs “inactive”; to FFSSGVVRQAYVLVAEDNVS, “inactive”; to DAFRSSYWIICMTEAHLYKF, “inactive”. To CFWFNHSNRRGQFFH belongs -0.286 ± 0.77. In the case of KYCHIYFNICLWLAYSLSFL, the amyloid nucleation score result was “inactive”. To ALVWFENVSVQELQWIKLTS belongs “inactive”. The result for GVDLDLLICGYMLWMDYCSG reads “inactive”.

With YKCMLYSFG, the amyloid nucleation score result was “inactive”. For the substance TVIWLYIFRSQMPPVNPMRL, the amyloid nucleation score entry was “inactive”. The result for TCECCLMMVEFRALCHRWEL reads “inactive”; that for TYSSGFAPGWN, “inactive”; that for WCFYKSLIACGHIVGIEPDW, 0.848 ± 0.15. The result for VWCYFVQYHGIISLSFIAFR reads “inactive”.

FHNVGLI displayed an amyloid nucleation score of 1.77 ± 0.093. To SIPNTTFIFSLL belongs 1.19 ± 0.08. To PSVTLQHSGIATWSILDRTL belongs 0.316 ± 0.26.

As for GNLASICVRLCWLCARLWST, the amyloid nucleation score result is “inactive”. The result for YNLGRNS reads “inactive”; that for MSICFDPWTRPKCGVYCRCS, “inactive”; that for QYFPDIY, “inactive”. For the substance DGTMANRIVVF, the amyloid nucleation score entry was “inactive”. For CCFYRSSWVFKLGEGRVIIP, the amyloid nucleation score was determined as 0.319 ± 0.43. The result for SAYSSGLRSKAYLYTASCTP reads “inactive”. To KARLLMWS belongs 0.181 ± 0.28; to WKFAGHEALWFLKIIEMLR, “inactive”; to MVCWANKHWYSSHLLYDSVY, “inactive”. The result for SKIVNHFNDHYHFEITCQYQ reads 2.88 ± 0.057. Regarding RINWTMMCKTFLRFINKS, the amyloid nucleation score result is “inactive”. The result for FHTWISGLPEVHWGVLEVRW reads “inactive”; that for LGDYSLTE, “inactive”; that for WSMSDFAALIGWIDALGLEL, “inactive”. To NGSLREKSGSVCKRIL belongs “inactive”; to FLRLCLVVRLRCVVISMGNY, “inactive”; to AHRFITMSLERVSTYRGLYV, “inactive”. The result for KLRCNTIKGFCSHKTRMGRT reads “inactive”. For the substance HFNEEGAQ, the amyloid nucleation score is -0.309 ± 1.1. As to LWWCTLYSILYGTLSTYSCS, the amyloid nucleation score result is “inactive”. To CVGHVRSYYGMQIPKGLKLS belongs “inactive”; to KKISAQESEFVGSPFEYGGG, “inactive”; to VYKWRAYIEHSNFWAIKPVC, “inactive”. Turning to PLCFLFNQFSYGA, the amyloid nucleation score result was “inactive”.
